Source: publication PMC9945446, “DNMT1 inhibition by pUG-fold quadruplex RNA”

Legend:
DNMT1 [1] = target: T1, DNMT1 (human, UniProt P26358 1-1616); assay: EMSA; 100 mM KCl; 50 mM Tris-HCl pH 7.5, 100 mM KCl (or LiCl), 2.5 mM MgCl2, 0.1 mM ZnCl2, 2 mM BME, 0.05% NP40, 5% glycerol, 0.1 mg/mL BSA, 0.1 mg/mL yeast tRNA; 30 C 1 h; 1% agarose gel in 1x TBE at 4 C; details: protein: recombinant; tags: MBP tag cleaved with PreScission protease; label: 5' 32P; canonical G4
DNMT1 [2] = target: T1, DNMT1; assay: as above; details: protein: recombinant, tags: MBP tag cleaved with PreScission protease; for Kd: label: 5' 32P
DNMT1 [3] = target: T1, DNMT1; assay: EMSA; 100 mM KCl; undetectable; 50 mM Tris-HCl pH 7.5, 100 mM KCl (or LiCl), 2.5 mM MgCl2, 0.1 mM ZnCl2, 2 mM BME, 0.05% NP40, 5% glycerol, 0.1 mg/mL BSA, 0.1 mg/mL yeast tRNA; 30 C 1 h; 1% agarose gel in 1x TBE at 4 C; details: protein: recombinant; tags: MBP tag cleaved with PreScission protease; label: 5' 32P; unstructured
DNMT1 [4] = target: T1, DNMT1; assay: EMSA; 100 mM KCl; 50 mM Tris-HCl pH 7.5, 100 mM KCl (or LiCl), 2.5 mM MgCl2, 0.1 mM ZnCl2, 2 mM BME, 0.05% NP40, 5% glycerol, 0.1 mg/mL BSA, 0.1 mg/mL yeast tRNA; 30 C 1 h; 1% agarose gel in 1x TBE at 4 C; details: protein: recombinant; tags: MBP tag cleaved with PreScission protease; label: 5' 32P; one pUG-fold in K+

T1 sequence (P26358 whole entry): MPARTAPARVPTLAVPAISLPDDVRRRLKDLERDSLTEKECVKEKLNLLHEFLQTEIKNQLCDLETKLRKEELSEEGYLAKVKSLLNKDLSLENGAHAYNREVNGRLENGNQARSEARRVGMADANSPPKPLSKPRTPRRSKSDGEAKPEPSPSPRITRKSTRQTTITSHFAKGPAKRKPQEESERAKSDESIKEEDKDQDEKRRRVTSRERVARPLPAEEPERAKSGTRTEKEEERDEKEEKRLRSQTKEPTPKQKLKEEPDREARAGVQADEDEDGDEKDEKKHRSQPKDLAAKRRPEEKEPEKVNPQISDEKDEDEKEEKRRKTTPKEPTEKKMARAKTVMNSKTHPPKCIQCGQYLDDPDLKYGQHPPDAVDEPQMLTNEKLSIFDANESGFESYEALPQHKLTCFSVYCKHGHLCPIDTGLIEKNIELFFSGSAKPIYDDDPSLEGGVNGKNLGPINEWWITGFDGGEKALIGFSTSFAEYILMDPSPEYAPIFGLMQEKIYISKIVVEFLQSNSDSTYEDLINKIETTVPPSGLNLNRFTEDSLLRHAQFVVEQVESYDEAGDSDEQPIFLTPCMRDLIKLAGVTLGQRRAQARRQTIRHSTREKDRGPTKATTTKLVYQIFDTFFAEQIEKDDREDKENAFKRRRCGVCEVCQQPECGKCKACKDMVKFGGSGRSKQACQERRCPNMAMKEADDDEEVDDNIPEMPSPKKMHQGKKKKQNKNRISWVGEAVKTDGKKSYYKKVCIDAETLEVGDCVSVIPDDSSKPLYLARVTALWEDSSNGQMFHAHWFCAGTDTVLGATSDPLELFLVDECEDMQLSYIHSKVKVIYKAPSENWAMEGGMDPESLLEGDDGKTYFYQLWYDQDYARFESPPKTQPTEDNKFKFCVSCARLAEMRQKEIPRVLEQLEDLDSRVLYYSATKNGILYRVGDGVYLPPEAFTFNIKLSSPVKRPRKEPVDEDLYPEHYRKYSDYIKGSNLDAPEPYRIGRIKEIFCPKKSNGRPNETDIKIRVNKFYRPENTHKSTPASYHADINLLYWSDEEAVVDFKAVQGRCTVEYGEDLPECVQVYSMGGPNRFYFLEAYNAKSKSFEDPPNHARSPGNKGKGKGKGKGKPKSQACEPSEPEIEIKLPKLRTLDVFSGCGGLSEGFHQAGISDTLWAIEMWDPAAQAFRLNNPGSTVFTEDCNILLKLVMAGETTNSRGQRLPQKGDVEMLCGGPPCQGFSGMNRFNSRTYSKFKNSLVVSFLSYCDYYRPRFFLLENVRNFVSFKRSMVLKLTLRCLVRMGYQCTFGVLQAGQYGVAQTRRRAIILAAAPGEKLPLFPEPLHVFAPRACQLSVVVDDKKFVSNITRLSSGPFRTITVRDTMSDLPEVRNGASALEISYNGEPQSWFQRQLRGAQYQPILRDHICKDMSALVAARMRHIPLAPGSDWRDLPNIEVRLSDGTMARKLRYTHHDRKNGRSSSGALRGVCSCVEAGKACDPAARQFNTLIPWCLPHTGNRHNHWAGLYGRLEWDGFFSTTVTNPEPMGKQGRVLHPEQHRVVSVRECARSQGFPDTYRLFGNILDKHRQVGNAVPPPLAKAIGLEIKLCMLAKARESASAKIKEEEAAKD

GGAAGGAAGGAAGGAAGGAAGGAAGGAAGGAAGGAAGGAA (structured_RNA) [(GGAA)10]
binding signal (DNMT1 [1]): 3 fold weaker than (GU)20

B1: Hemimethylated DNA substrate (dsDNA)
DNA 1: TACGTATCCGTATCCGGTTACGTATCCGAATCCGTACCGT
DNA 2: ACGGTACGGATTCGGATACGTAACCGGATACGGATACGTA
modifications: 5mC at strand 1 positions 3,9,15,21,27,33,38
binding result (DNMT1 [2]; label: 32P end label, blunt): binds

B2: (GU)30 (structured_RNA)
RNA: GUGUGUGUGUGUGUGUGUGUGUGUGUGUGUGUGUGUGUGUGUGUGUGUGUGUGUGUGUGU
Kd (DNMT1 [2]; pUG-fold, possibly two): 13 nM

AAAAAAAAAAAAAAAAAAAAAAAAAAAAAAAAAAAAAAAA (ssRNA) [(A)40]
binding result (DNMT1 [3]): no binding

GUGUGUGUGUGUGUGUGUGUGUGU (structured_RNA) [(GU)12]
binding signal (DNMT1 [4]): 5 fold weaker than (GU)20

GUGUGUGUGUGUGUGUGUGUGUGUGUGUGUGUGUGUGUGU (structured_RNA) [(GU)20]
Kd (DNMT1 [2]; pUG-fold (noncanonical G4) in K+): 69 nM
